In patent US20170355774A1 (Regeneron, published 2017):

Experiments:
hGITR.mmh = target: T1, hGITR.mmh (human); assay: SPR 37C, mAb capture
T1 construct: soluble monomeric construct; also called human (h) GITR.mmh; monomeric human GITR
T1 chain: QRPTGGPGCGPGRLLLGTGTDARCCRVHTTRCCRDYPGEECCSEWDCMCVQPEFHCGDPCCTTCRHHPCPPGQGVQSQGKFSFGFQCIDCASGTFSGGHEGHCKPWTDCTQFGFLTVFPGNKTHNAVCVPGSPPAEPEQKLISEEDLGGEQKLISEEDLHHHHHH

hGITR.mFc = target: T2, hGITR.mFc (human); assay: SPR 37C, mAb capture
T2 construct: soluble dimeric construct with mouse Fc; also called dimeric human GITR
T2 chain: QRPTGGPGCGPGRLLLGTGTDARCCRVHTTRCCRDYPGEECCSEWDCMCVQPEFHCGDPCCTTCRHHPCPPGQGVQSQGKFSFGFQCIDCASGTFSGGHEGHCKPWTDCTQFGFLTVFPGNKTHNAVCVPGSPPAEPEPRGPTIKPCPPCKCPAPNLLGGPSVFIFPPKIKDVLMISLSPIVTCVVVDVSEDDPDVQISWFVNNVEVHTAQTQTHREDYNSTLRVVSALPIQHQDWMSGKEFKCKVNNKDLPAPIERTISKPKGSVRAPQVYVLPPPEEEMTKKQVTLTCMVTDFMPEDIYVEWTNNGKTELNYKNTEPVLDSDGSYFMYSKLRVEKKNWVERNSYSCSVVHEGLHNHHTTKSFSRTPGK

mfGITR.mmh = target: T3, mfGITR.mmh (Macaca fasicularis); assay: SPR 37C, mAb capture
T3 construct: soluble monomeric construct; also called Macaca fasicularis (mf) GITR.mmh; cynomolgus GITR protein
T3 chain: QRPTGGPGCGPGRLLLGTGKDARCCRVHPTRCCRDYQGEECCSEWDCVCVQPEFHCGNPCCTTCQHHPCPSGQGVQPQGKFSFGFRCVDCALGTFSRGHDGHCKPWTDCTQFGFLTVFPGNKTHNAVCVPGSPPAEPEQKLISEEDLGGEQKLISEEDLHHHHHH

[1] = target: T4, human GITR (amino acids M1-V241, NCBI Accession #NP_004186.1) expressed on cells (human, UniProt Q9Y5U5 26-241); assay: cell-based or functional assay
T4 sequence: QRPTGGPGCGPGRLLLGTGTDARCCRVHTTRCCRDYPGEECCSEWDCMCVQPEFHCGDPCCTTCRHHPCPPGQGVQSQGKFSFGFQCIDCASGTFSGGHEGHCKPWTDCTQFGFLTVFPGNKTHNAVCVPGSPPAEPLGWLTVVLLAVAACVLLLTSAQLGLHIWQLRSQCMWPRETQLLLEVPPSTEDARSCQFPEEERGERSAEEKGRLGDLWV

[2] = target: T4, human GITR (amino acids M1-V241, NCBI …); assay: cell-based or functional assay; remark: listed apart in the source
[3] = target: T4, human GITR (amino acids M1-V241, NCBI …); assay: cell-based or functional assay; remark: listed apart in the source
[4] = target: T4, human GITR (amino acids M1-V241, NCBI …); assay: cell-based or functional assay; remark: listed apart in the source
[5] = target: T4, human GITR (amino acids M1-V241, NCBI …); assay: cell-based or functional assay; remark: listed apart in the source
[6] = target: T4, human GITR (amino acids M1-V241, NCBI …); assay: cell-based or functional assay; remark: listed apart in the source
[7] = target: T4, human GITR (amino acids M1-V241, NCBI …); assay: cell-based or functional assay; remark: listed apart in the source
[8] = target: T4, human GITR (amino acids M1-V241, NCBI …); assay: ECL cell binding, hGITR/HEK293-D9
How it was run: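 Cells blocked with 2% BSA, then antibody dilutions from 1.7 pM to 100 nM added 1 h at RT. Bound antibody detected with SULFO-TAG anti-human kappa antibody, electrochemiluminescence read, RLU fitted by four-parameter logistic; signal at 100 nM on hGITR cells versus parental cells also recorded.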

B1: H4H14536P2 (antibody, human IgG4, V domains shown)
VH: QVQLQESGPGLVKPSETLSLTCIVSGGSISGYFWNWIRQPPGKGLEWIGYIYYSGTTIYNPSLKSRFTISLDTSKNQFSLKLTSVTAADTAVYYCARESYNPSPRYFDHWGQGTLVTVSS
VL: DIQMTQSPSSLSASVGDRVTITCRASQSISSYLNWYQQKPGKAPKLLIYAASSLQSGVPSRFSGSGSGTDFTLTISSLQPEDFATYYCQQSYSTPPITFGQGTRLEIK
notes: human IgG4 (H4H)
Kd (hGITR.mmh): 23 nM | koff (hGITR.mmh): 0.00976 s⁻¹ | kon (hGITR.mmh): 424000 M⁻¹ s⁻¹ | t½ (hGITR.mmh): 1.2 min | Kd (hGITR.mFc): 0.173 nM | koff (hGITR.mFc): 0.000219 s⁻¹ | kon (hGITR.mFc): 1.26e+06 M⁻¹ s⁻¹ | t½ (hGITR.mFc): 52.7 min | Kd (mfGITR.mmh): 142 nM | koff (mfGITR.mmh): 0.0147 s⁻¹ | kon (mfGITR.mmh): 104000 M⁻¹ s⁻¹ | t½ (mfGITR.mmh): 0.8 min | % Activation, NF-kB-Luc, non-anchored [1]: 20% | % Blocking, NF-kB-Luc, non-anchored [1]: 90% | EC50, hGITR activation, NF-kB-Luc, non-anchored [1]: 1.1 nM | IC50, blocking of hGITRL stimulation, NF-kB-Luc, non-anchored [1]: 2 nM | EC50, hGITR activation, NF-kB-Luc, FcgR anchored [2]: 0.01 nM | Fold Activation over basal signal, NF-kB-Luc, FcgR anchored [2]: 5 fold | IC50, blocking of hGITRL stimulation, NF-kB-Luc, FcgR anchored [2]: 0.2 nM | fold activation, T-cell proliferation, plate-bound Ab 10.6 nM, donor 1 [3]: 3 fold | fold activation, T-cell proliferation, plate-bound Ab 10.6 nM, donor 2 [3]: 24 fold | fold activation, T-cell proliferation, plate-bound Ab 10.6 nM, donor 3 [3]: 24 fold | fold activation, T-cell proliferation, plate-bound Ab 10.6 nM, donor 4 [3]: 25 fold | fold activation, T-cell proliferation, plate-bound Ab 10.6 nM, donor 5 [3]: 24 fold | fold activation, T-cell proliferation, plate-bound Ab 10.6 nM, donor 6 [3]: 47 fold | fold activation, T-cell proliferation, plate-bound Ab 10.6 nM, donor 7 [3]: 26 fold | fold activation, T-cell proliferation, plate-bound Ab 10.6 nM, donor 8 [3]: 16 fold | fold activation, T-cell proliferation, plate-bound Ab 10.6 nM, mean [3]: 23 fold | fold activation, T-cell proliferation, 33 nM, FcgR anchored, donor 1 [4]: 1.3 fold | fold activation, T-cell proliferation, 33 nM, FcgR anchored, donor 2 [4]: 6.3 fold | fold activation, T-cell proliferation, 33 nM, FcgR anchored, donor 3 [4]: 1.5 fold | fold activation, T-cell proliferation, 33 nM, FcgR anchored, donor 4 [4]: 2.7 fold | fold activation, T-cell proliferation, 33 nM, FcgR anchored, donor 5 [4]: 15.7 fold | fold activation, T-cell proliferation, 33 nM, FcgR anchored, mean [4]: 5.5 fold | EC50, T-cell proliferation, FcgR anchored, donor 1 [5]: 1.2 nM | EC50, T-cell proliferation, FcgR anchored, donor 2 [5]: 0.5 nM | EC50, T-cell proliferation, FcgR anchored, donor 3 [5]: 1.3 nM | EC50, T-cell proliferation, FcgR anchored, donor 4 [5]: 11.2 nM | EC50, T-cell proliferation, FcgR anchored, donor 5 [5]: 1.6 nM | EC50, T-cell proliferation, FcgR anchored, mean [5]: 3.2 nM | fold activation, T-cell proliferation, 22 nM, non-anchored, donor 1 [6]: 6.2 fold | fold activation, T-cell proliferation, 22 nM, non-anchored, donor 2 [6]: 4.2 fold | fold activation, T-cell proliferation, 22 nM, non-anchored, donor 3 [6]: 10.1 fold | fold activation, T-cell proliferation, 22 nM, non-anchored, donor 4 [6]: 23.4 fold | fold activation, T-cell proliferation, 22 nM, non-anchored, mean [6]: 11 fold | EC50, T-cell proliferation, non-anchored, average [7]: 8.3 nM | EC50, T-cell proliferation, non-anchored, donor 1 [7]: 12.2 nM | EC50, T-cell proliferation, non-anchored, donor 2 [7]: 6.4 nM | EC50, T-cell proliferation, non-anchored, donor 3 [7]: 9 nM | EC50, T-cell proliferation, non-anchored, donor 4 [7]: 5.7 nM | Average Signal (RLU) at 100 nM [8]: 8960 RLU | EC50 [8]: 0.36 nM
